Source: PMC6491428

Experiments:
[1] = test system: TH3N2 (influenza A H3N2 target protein; protein identity not stated in the material) (Influenza A virus H3N2 (strain not stated)); test: SPR
[2] = test system: TH3N2 (influenza A H3N2 target protein; protein identity not stated in the material) (Influenza A virus H3N2 (strain not stated)); test: electrochemical DPV (Apta-DEPSOR)
[3] = test system: TH1N1 (influenza A H1N1 target protein; protein identity not stated in the material) (Influenza A virus H1N1 (strain not stated)); test: electrochemical DPV (Apta-DEPSOR)
[4] = test system: TH1N1 (influenza A H1N1 target protein; protein identity not stated in the material) (Influenza A virus H1N1 (strain not stated)); test: SPR

Row | Sequence | Kd [1] [nM] | binding signal [2] | binding signal (fold lower signal than with TH3N2) [3] | Kd [4] [nM] | binding signal [3] | binding signal (fold lower signal than with TH1N1) [2]
1 | AGCAGCACAGAGGTCAGATGGTGGTTGTTTTGGGCGAAGTGGCCATGGTCCCTATCGCTGCTACCGTGAA [Apt02>TH3N2] | 1.7 | 1.16 µA (Ipc) | – | – | – | –
2 | AGCAGCACAGAGGTCAGATGTCTGCAGCGTGCAGGGCTGTGTGCTTACCCCCTATCGCTGCTACCGTGAA [Apt04>TH3N2] | 0.088 | 1.61 µA (Ipc) | – | – | – | –
3 | AGCAGCACAGAGGTCAGATGGCGCGGGCGGTGCGTCGGTGTCCCGCTGGCCTATCGCTGCTACCGTGAA [Apt03>TH3N2] | 0.6 | 1.11 µA (Ipc) | – | – | – | –
4 | AGCAGCACAGAGGTCAGATGCTAGCCGTGAGCGTGGTGAGCTCGGTTGACCCTATCGCTGCTACCGTGAA [Apt01>TH3N2] | 0.14 | 1.73 µA (Ipc) | 9 | – | – | –
5 | AGCAGCACAGAGGTCAGATGAGGTGATGAGATTTGTACCTCTCGCGGCACCCTATCGCTGCTACCGTGAA [Apt02>TH1N1] | – | – | – | 57 | 2.26 µA (Ipc) | –
6 | AGCAGCACAGAGGTCAGATGATTGGATCGTGACGGTTGTTGGGGCTCCGCCTATCGCTGCTACCGTGAA [Apt01>TH1N1] | – | – | – | 35000 | 0.85 µA (Ipc) | –
7 | AGCAGCACAGAGGTCAGATGTGTGCGTGCTTGGGGTATAGTCGGGTCGGCCTATCGCTGCTACCGTGAA [Apt04>TH1N1] | – | – | – | 1.6 | 1.23 µA (Ipc) | –
8 | AGCAGCACAGAGGTCAGATGTAGGTCGTACTCTGGCGGCCTGTTTGGCCCTATCGCTGCTACCGTGAA [Apt03>TH1N1] | – | – | – | 0.082 | 3.37 µA (Ipc) | 5
